Results from the supplement of paper PMC10126150.
± gives the standard deviation of the averaged measurements.

System: ATP
Assay: switch fluorescence ratio, 500 uM ATP over buffer (Cy3 cluster intensity, sum of 5 cycles each) (fold (ratio)); higher = stronger signal-on switching upon ATP binding; sequences stand for … in TCGTCGGCAGCGTCAGATGTGTATAAGAGACAGTTTTTTTTTTTTTTTTTTTTTTTTT…TC
Settings: aptamer strand: ATP DNA aptamer (quencher-CACCTGGGGGAGTATTGCGGAGGAAGG + anchor), 100 nM annealed; ATP concentration: 500 uM
In short: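 Exposure to 500 uM ATP lasted 15 min at 22 °C before imaging, and a selection-buffer image was taken beforehand, for Cy3-labelled switching-strand clusters on a modified Illumina MiSeq flow-cell annealed to 100 nM quencher-labelled ATP aptamer. Five buffer/ATP cycles were run with NaOH stripping and re-annealing between them. The fluorescence ratio per cluster is summed target-cycle over summed buffer-cycle Cy3 intensity, averaged per switch-domain sequence. Clusters outside 100-1000 RFU were excluded.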

Sequence | switch fluorescence ratio
TTTCATTACT | 1.04 ± 0.065
AATATGAATT | 1.01 ± 0.016
TTATAGTATC | 0.948 ± 0.02
ACGTTTTACA | 1.183 ± 0.0076
AAATGGTCGG | 0.974 ± 0.017
TATGATCAGG | 0.9933 ± 0.0025
CTAAATATTG | 0.989 ± 0.015
AATCTTGTTG | 0.998 ± 0.021
GTTATGTTTG | 1.01 ± 0.045
ATTGTGGTCA | 0.999 ± 0.017
TTCGAGTCGG | 0.967 ± 0.011
TCTGAAGATT | 0.999 ± 0.016
GCTGGGGGCT | 1.008 ± 0.0076
TTGGCGCCGT | 0.998 ± 0.044
TGATTGTTGG | 1.01 ± 0.012
TGTGGGGGAT | 1.01 ± 0.06
GATTGTACTC | 1.022 ± 0.01
CGTTAGCGGG | 1 ± 0.018
CGCTGAGAGG | 1 ± 0.027
AAGGTGTTGT | 1.04 ± 0.066
TGGCAGTGTG | 1.05 ± 0.019
ATTTTAGGGA | 0.98918 ± 0.00041
TTGGAGAGGG | 1.06 ± 0.058

Sequence | switch fluorescence ratio
AAGAAACTTC | 1.007 ± 0.0024
ACTCTTATTG | 0.988 ± 0.0039
AGTTCAACCT | 1.65 ± 0.19
CACGGTTTGC | 1.01 ± 0.021
GGTCGGGGTT | 1.02 ± 0.034
GCGCGCTAGT | 1.007 ± 0.0024
CGTTGTTGAA | 0.968 ± 0.036
AAAAATATGC | 0.996 ± 0.017
ATGGGCGTGG | 1 ± 0.06
TTTTGGGTCA | 1.02 ± 0.018
AAATAGTGCC | 1.036 ± 0.0029
ATGTACATTT | 1.068 ± 0.0059
ATATTATGGG | 0.9979 ± 0.0095
GGGCGCAGGG | 1.01 ± 0.01
AGGGGCAACT | 1 ± 0.048
TCACCGAGGC | 1.15 ± 0.07
ATCTACGAAA | 1.31 ± 0.03
CGGGTGAGGT | 1 ± 0.027
CAGGGTACGG | 1.01 ± 0.052
CGAATCGCCT | 1 ± 0.022
ACTCGTAGCA | 1.19 ± 0.012
AGGGGGTTT | 1.02 ± 0.024
TTGCTCAAGC | 0.999 ± 0.068

Sequence | switch fluorescence ratio
CGTGTGGCTG | 0.992 ± 0.034
GAATATTTTG | 0.994 ± 0.015
ATCATCCGTT | 1.04 ± 0.025
TAGTAGATTA | 0.982 ± 0.012
ACGTGGTGTT | 1.003 ± 0.0035
TCATTTTGG | 0.992 ± 0.015
TGAAAAACAC | 1.12 ± 0.17
AACAGGAAGC | 1.01 ± 0.017
GGGAGCTGTT | 1.06 ± 0.11
GGTCTAAATT | 1 ± 0.039
TCGCTTTTGG | 1.02 ± 0.033
CTAGGAGTTT | 0.999 ± 0.011
AGGAACGGGT | 0.9838 ± 0.0027
AGGTTTGGGA | 0.987 ± 0.032
TGCAAGGGGC | 1.04 ± 0.04
CGAAAGATGG | 1 ± 0.034
TTGCACGGTC | 1.03 ± 0.085
CATGTATTGG | 0.991 ± 0.021
ACACCGGGGG | 1.13 ± 0.17
ATAGTAAAGG | 0.994 ± 0.031
GTTGCAGCTG | 0.962 ± 0.037
GGTGCACCGA | 0.9884 ± 0.0063
AGAGGTGTCT | 1 ± 0.049

Sequence | switch fluorescence ratio
AGCAATTGCT | 1.05 ± 0.023
TATTCTAAAT | 1.01 ± 0.016
CAGGAACGAG | 1.004 ± 0.0035
AGGCCTTCGA | 1.003 ± 0.0083
GGTATTAGGG | 1.002 ± 0.0014
TAAGGACAGG | 1.047 ± 0.0049
GCAGGGGGGT | 1.01 ± 0.034
CAAAATAAGA | 1.01 ± 0.017
TATTGTATGA | 1.029 ± 0.0049
CCAAGCATCG | 1.197 ± 0.0062
GCTCCATGGG | 1.02 ± 0.046
AGGCTGAGCG | 1.01 ± 0.022
CGTCTTGCCC | 0.9853 ± 0.0052
TTGCAATTGG | 2.56 ± 2
GGGCGCCTGC | 0.9942 ± 0.0065
CGCTCAAGGG | 1.031 ± 0.0042
AAAATGGGCA | 1.02 ± 0.024
CTCGTGAGTT | 1.02 ± 0.021
GGTTGCACGC | 1.01 ± 0.0046
AAGTAGAATT | 1.015 ± 0.0045
CAGATAGAAG | 0.999 ± 0.012
ATAGTATGTT | 0.99 ± 0.051
TTGATAGAAA | 1.01 ± 0.038

Sequence | switch fluorescence ratio
CTAGTCATGC | 1.06 ± 0.0097
TTTCAGCCGG | 1.04 ± 0.034
TATCGGGGT | 0.989 ± 0.013
CGTGACTCTA | 1.03 ± 0.046
TGGGCGTCGG | 0.999 ± 0.032
GTGGTTACAG | 1.02 ± 0.011
TTGGATTGTT | 1.04 ± 0.025
CTCTTGGAGA | 1.01 ± 0.026
TCCAGTGTTG | 1.08 ± 0.071
CTGGAAGCTA | 1.6 ± 0.1
TAGTACTTTA | 1.046 ± 0.0071
TCATGTGTTG | 0.992 ± 0.045
GGCTCAGTTT | 0.979 ± 0.026
TAAAGTTAGG | 1 ± 0.011
GAAGTCCTGT | 0.998 ± 0.021
AATCTTTGCT | 1.011 ± 0.0063
TTATCTCTGT | 0.999 ± 0.022
CGCCGAGTTT | 1.05 ± 0.071
CCGGGTGGGG | 1.04 ± 0.03
TTAGCGTATG | 1.01 ± 0.031
GAGGATATGG | 0.98 ± 0.021
GAGGGGAAGG | 0.958 ± 0.057
AGGTCAGTAG | 1 ± 0.024

Sequence | switch fluorescence ratio
GGTCTAAGGG | 0.976 ± 0.036
GTGGCTAATT | 1 ± 0.015
TTAGTGTTGT | 0.969 ± 0.028
AAAAGGTTAC | 1.06 ± 0.033
TGGGTATGGG | 1.01 ± 0.037
TATGATCACG | 0.995 ± 0.011
TTTGGGAATT | 1.03 ± 0.035
GGGAGGGGGT | 1 ± 0.035
ATCATTGTTA | 1 ± 0.053
AGAGAATATT | 1.03 ± 0.039
GTATAAACCC | 1.03 ± 0.019
TTAATGGTTT | 1.11 ± 0.17
CTGTTTGTAT | 0.978 ± 0.02
GAGCTTACTT | 1.104 ± 0.011
AATTTGCGAC | 1.05 ± 0.011
TTTTACGAGT | 1.06 ± 0.16
TGTTTGGCTT | 0.9619 ± 0.0079
CGGGGGATTG | 0.988 ± 0.014
GGGGGAGTAG | 0.983 ± 0.016
CCTCAGCGGA | 3.35 ± 0.42
GGGGAAAGAA | 1.02 ± 0.064
GCGGACAGGA | 1 ± 0.029
AATGAAGTGT | 0.996 ± 0.012

Sequence | switch fluorescence ratio
AGCCCCGGCT | 0.967 ± 0.045
GGGATTGGGA | 0.99 ± 0.045
GGGTTGGTAG | 0.984 ± 0.026
TAAGGGATGG | 0.973 ± 0.043
AGGTAGGGTG | 1.04 ± 0.055
GCATGTCGAT | 1.02 ± 0.023
AGTTGGTCTC | 1.13 ± 0.12
CTGGTTTGAG | 0.97 ± 0.012
GGATGACTTT | 0.9981 ± 0.0071
ATATTAGTTT | 1 ± 0.011
ATGATACTTC | 0.9968 ± 0.0027
ACCTTAGGCC | 1.07 ± 0.015
GATTTTGCGA | 0.983 ± 0.033
TTTAAGGATA | 0.9872 ± 0.0055
GTTGTTAGGA | 0.961 ± 0.02
GAATGGGAGT | 0.9969 ± 0.0051
GTGATGGTT | 0.984 ± 0.03
TGGGCCAGTG | 1.05 ± 0.014
GTTTGCCCTT | 1.06 ± 0.1
